From US20260217835 come the findings set out here.

Positions count from the first letter of the chain named. Numbers in names are those of the source.

What all share (assay): SEC area ratio of heteromultimer after coexpression of full-length heavy chain, light chain and Fc fragment in Expi293F
Data set [1] has as its target T1, IgG1 Fc fragment with CH3 modification E345R/K360E/D399M/Y407A/K409V (SEQ ID NO: 76).
T1 chain: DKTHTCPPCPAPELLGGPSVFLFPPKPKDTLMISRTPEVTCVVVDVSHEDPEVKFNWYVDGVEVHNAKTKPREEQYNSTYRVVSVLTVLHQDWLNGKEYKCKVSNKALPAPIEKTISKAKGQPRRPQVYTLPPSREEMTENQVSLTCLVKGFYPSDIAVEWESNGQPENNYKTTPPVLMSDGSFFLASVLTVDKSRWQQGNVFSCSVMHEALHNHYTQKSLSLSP

The target in data set [2] is T2, IgG1 Fc fragment with CH3 modification E345R/Q347R/K360D/T366V/D399M/Y407A/K409V (SEQ ID NO: 74).
T2 chain: T1 chain with Q127R, E140D, T146V

Data set [3] has as its target T3, IgG1 Fc fragment with CH3 modification E356K/K392D/D399K/K409D (SEQ ID NO: 75).
T3 chain: T1 chain with R125E, E136K, E140K, K172D, M179K, A187Y, V189D

The target in data set [4] is T4, IgG1 Fc fragment with CH3 modification E356K/K392D/D399K/K439E (SEQ ID NO: 71).
T4 chain: T1 chain with R125E, E136K, E140K, K172D, M179K, A187Y, V189K, K219E

The target of data set [5] is T5, IgG1 Fc fragment with CH3 modification Q347E/S354Y/T366Y/Y407T (SEQ ID NO: 69).
T5 chain: T1 chain with R125E, Q127E, S134Y, E140K, T146Y, M179D, A187T, V189K

The target in data set [6] is T6, IgG1 Fc fragment with CH3 modification Q347R/K360E/D399V/F405T/K409W (SEQ ID NO: 66).
T6 chain: T1 chain with R125E, Q127R, M179V, F185T, A187Y, V189W

In data set [7] the target is T7, IgG1 Fc fragment with CH3 modification T366W/L368A/Y407V (SEQ ID NO: 65).
T7 chain: T1 chain with R125E, E140K, T146W, L148A, M179D, A187V, V189K

Data set [8] deals with IgG1 Fc fragment with CH3 modification T394F/F405A (SEQ ID NO: 67).
In data set [9] the target is T8, IgG1 Fc fragment with CH3 modification Y349C/E357C/K392D/D399K (SEQ ID NO: 73).
T8 chain: T1 chain with R125E, Y129C, E137C, E140K, K172D, M179K, A187Y, V189K

In data set [10] the target is IgG1 Fc fragment, WT (no CH3 modification), SEQ ID NO: 63 in Table 5.

B1: full-length IgG heavy chain with CH3 modification Y349C/E357C/K392D/D399K (SEQ ID NO: 51), coexpressed with light chain SEQ ID NO: 61 (protein)
chain 1: QVQLQESGPGLVRPSQTLSLTCTVSGYSITSDHAWSWVRQPPGRGLEWIGYISYSGITTYNPSLKSRVTMLRDTSKNQFSLRLSSVTAADTAVYYCARSLARTTAMDYWGQGSLVTVSSASTKGPSVFPLAPSSKSTSGGTAALGCLVKDYFPEPVTVSWNSGALTSGVHTFPAVLQSSGLYSLSSVVTVPSSSLGTQTYICNVNHKPSNTKVDKRVEPKSCDKTHTCPPCPAPELLGGPSVFLFPPKPKDTLMISRTPEVTCVVVDVSHEDPEVKFNWYVDGVEVHNAKTKPREEQYNSTYRVVSVLTVLHQDWLNGKEYKCKVSNKALPAPIEKTISKAKGQPREPQVCTLPPSRECMTKNQVSLTCLVKGFYPSDIAVEWESNGQPENNYDTTPPVLKSDGSFFLYSKLTVDKSRWQQGNVFSCSVMHEALHNHYTQKSLSLSP
chain 2: not shown
In the case of B1, the heterodimer formation ratio (%) was found to be 0% in data set [1]; 2% in data set [2]; 0% in [3]; 0% in data set [4]; 0% in [5]; 0% in data set [6]. Besides, the heterodimer formation ratio (%) in data set [7] turned out to be 0%; in data set [8] it was 0%; in data set [9], 56%; in [10], 0%.

B2: full-length IgG heavy chain with CH3 modification E345R/K360E/D399M/Y407A/K409V (SEQ ID NO: 58), coexpressed with light chain SEQ ID NO: 61 (protein)
chain 1: B1 chain 1 with E347R, C351Y, C359E, K362E, D394K, K401M, Y409A, K411V
chain 2: not shown
For B2, the heterodimer formation ratio (%) in [1] came to 51%; in [2] it was 51%; in data set [3], 0%; in [4], 0%; in [5], 0%; in data set [6], 4%. The heterodimer formation ratio (%) in data set [7], in [8], in [9] and in [10] was 0% each time.

B3: full-length IgG heavy chain with CH3 modification E356K/K392D/D399K/K409D (SEQ ID NO: 56), coexpressed with light chain SEQ ID NO: 61 (protein)
chain 1: B1 chain 1 with C351Y, E358K, C359E, K411D
chain 2: not shown
As to B3, the heterodimer formation ratio (%) in data set [1] was determined as 0%; in data set [2], 0%; in data set [3], 56%; in data set [4], 60%; in data set [5] it was 0%; in data set [6] it was 0%. Further, the heterodimer formation ratio (%) in data set [7], in [8], in data set [9] and in data set [10] was 0% in each case.

B4: full-length IgG heavy chain with CH3 modification T350V/L351Y/T366L/K392L/T394W/F405A/Y407V (SEQ ID NO: 60), coexpressed with light chain SEQ ID NO: 61 (protein)
chain 1: B1 chain 1 with C351Y, T352V, L353Y, C359E, T368L, D394L, T396W, K401D, F407A, Y409V
chain 2: not shown
In the case of B4, the heterodimer formation ratio (%) in data set [1], in [2], in [3], in data set [4], in data set [5] and in data set [6] was 0% throughout. The heterodimer formation ratio (%) worked out at 0% in data set [7], 4% in data set [8], 0% in [9] and 0% in [10].

B5: full-length IgG heavy chain with CH3 modification E345R/Q347R/K360D/T366V/D399M/Y407A/K409V (SEQ ID NO: 55), coexpressed with light chain SEQ ID NO: 61 (protein)
chain 1: B1 chain 1 with E347R, Q349R, C351Y, C359E, K362D, T368V, D394K, K401M, Y409A, K411V
chain 2: not shown
Regarding B5, the heterodimer formation ratio (%) in [1] worked out at 49%; in data set [2] it was 52%; in data set [3], 0%; in [4], 0%; in data set [5] it was 0%; in data set [6], 6%. Moreover, the heterodimer formation ratio (%) in data set [7], in [8], in [9] and in data set [10] was 0% each time.
